Test results reported in patent publication US20230181756A1 (Novartis, published 2023).
Like-named read-outs stand apart in the source and are kept apart here.

B1: 674J13.CysMab.DAPA.AURIX2 (antibody, human IgG1, kappa, V domains shown)
VH: DVQLQESGPGLVKPSQTLSLTCTVSGYSITSGYSWHWIRQHPGKGLEWMAHIHSSGSTNYNPSLKSRITISRDTSKNQFSLKLSSVTAADTAVYYCARGGVQAFAYWGQGTLVTVSS
VL: EIVLTQSPATLSASPGERVTMSCSASSSVIYMHWYQQKPGQAPRRWIYDTSKLASGVPARFSGSGSGTDYTLTISSMEPEDAAVYYCQQWSSNPLTFGQGTKLEIKR
modifications: DAR LC 0.03; AURIX2 on engineered cysteines, DAR HC 3.93
notes: also called 674J13.DAPA.AURIX2
B2: 506E15 non-humanized CysMab (antibody, human IgG1, kappa, V domains shown)
VH: EVMLVESGGGLVKPGGSLKLSCAASGFTFSSYAMSWIRQTPEKRLEWVATISSGGSFTYYPDSVKGRFTISRDNVKNTLYLQMSSLRSEDTAMYYCARRASTVVGTDFDVWGAGTTVTVSS
VL: DIQMTQSPSSLSASLGERVSLTCRASQDIGSSLNWLQQEPDGTIKRLIYATSSLDSGVPKRFSGSRSGSDYSLTISSLESEDFVVYYCLQYASSPPTFGGGTKLEIKR
notes: Chimeric human IgG1 kappa with CysMab cysteines and wild type Fc; also called Parental 506E15 hIgG1 CysMab; Non-humanized CysMab antibody 506E15
B3: 674J13 non-humanized CysMab (antibody, human IgG1, kappa, V domains shown)
VH: DVQLQESGPDLVKPSQSLSLTCTVTGYSITSGYSWHWIRQFPGNKLEWMAHIHSSGSTNYNPSLKSRISIIRDTSKNLFFLQLNSVTTEDTATYYCARGGVQAFAYWGQGTLVTVSA
VL: QIVLTQSPAIMSASPGEKVTMTCSASSSVIYMHWYQQKSGTSPKRWIYDTSKLASGVPARFSGSGSGTSYSLTISSMEAEDAATYYCQQWSSNPLTFGAGTTLELKR
notes: Chimeric human IgG1 kappa with CysMab cysteines and wild type Fc; also called Parental 674J13 hIgG1 CysMab; Non-humanized CysMab antibody 674J13
B4: 506E15 humanized CysMab (Fc Wild Type) (antibody, V domains shown)
VH: EVQLVESGGGLVKPGGSLRLSCAASGFTFSSYAMSWIRQAPGKGLEWVATISSGGSFTYYPDSVKGRFTISRDNAKNSLYLQMNSLRAEDTAVYYCARRASTVVGTDFDVWGQGTTVTVSS
VL: DIQMTQSPSSLSASVGDRVTLTCRASQDIGSSLNWLQQKPGKAIKRLIYATSSLDSGVPSRFSGSRSGTDYTLTISSLQPEDFVVYYCLQYASSPPTFGGGTKLEIK
notes: Human IgG1 kappa with CysMab cysteines; also called Humanized CysMab antibody 506E15
B5: 674J13 humanized CysMab (Fc Wild Type) (antibody, V domains shown)
VH: DVQLQESGPGLVKPSQTLSLTCTVSGYSITSGYSWHWIRQHPGKGLEWMAHIHSSGSTNYNPSLKSRITISRDTSKNQFSLKLSSVTAADTAVYYCARGGVQAFAYWGQGTLVTVSS
VL: EIVLTQSPATLSASPGERVTMSCSASSSVIYMHWYQQKPGQAPRRWIYDTSKLASGVPARFSGSGSGTDYTLTISSMEPEDAAVYYCQQWSSNPLTFGQGTKLEIK
notes: Human IgG1 kappa with CysMab cysteines; also called Humanized CysMab antibody 674J13
B6: Humanized 684E12 hIgG1 DAPA CysMab (antibody, V domains shown)
VH: EVQLVESGGGLVKPGGSLRLSCAASGFTFSNFAMSWVRQAPGKGLEWVSTISTGGTYTYYPDSVKGRFTISRDNAKNSLYLQMNSLRAEDTAVYYCARRGYSGVDKWGQGTTVTVSS
VL: DVVMTQSPLSLPVTLGQPASISCKSGQSLLDSTGKTYLNWFLQRPGQSPRRLIYLVSKLDSGVPDRFSGSGSGTDFTLKISRVEAEDVGVYYCWQGTHFPQTFGGGTKLEIKR
notes: also called Humanized CysMab.DAPA antibody 684E12

Key:
human CCR7 [1] = biological target: T1, human CCR7 (human, UniProt P32248 25-378); experiment: cell-based or functional assay
T1 sequence: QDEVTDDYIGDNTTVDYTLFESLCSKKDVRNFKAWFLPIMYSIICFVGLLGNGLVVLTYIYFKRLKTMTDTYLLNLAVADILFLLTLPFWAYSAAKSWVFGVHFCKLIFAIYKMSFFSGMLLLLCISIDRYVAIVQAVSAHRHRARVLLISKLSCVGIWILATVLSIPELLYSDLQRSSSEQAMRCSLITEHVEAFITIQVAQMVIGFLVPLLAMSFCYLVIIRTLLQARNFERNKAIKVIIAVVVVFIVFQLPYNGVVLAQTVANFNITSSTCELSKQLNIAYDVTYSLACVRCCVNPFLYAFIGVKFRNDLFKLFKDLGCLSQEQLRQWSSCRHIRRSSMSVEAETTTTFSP

human CCR7 [2] = biological target: T1, human CCR7; experiment: FACS binding on CCR7 expressing cells, against the unconjugated antibody
human CCR7 [3] = biological target: T1, human CCR7; experiment: cell-based or functional assay; remark: listed apart in the source
rat CCR7 = biological target: T2, rat CCR7 (rat, UniProt P47774 25-378 (mouse entry)); experiment: FACS titration, Wistar rat CD4+ T cells
T2 construct: also called NIH3T3.rat CCR7
T2 chain: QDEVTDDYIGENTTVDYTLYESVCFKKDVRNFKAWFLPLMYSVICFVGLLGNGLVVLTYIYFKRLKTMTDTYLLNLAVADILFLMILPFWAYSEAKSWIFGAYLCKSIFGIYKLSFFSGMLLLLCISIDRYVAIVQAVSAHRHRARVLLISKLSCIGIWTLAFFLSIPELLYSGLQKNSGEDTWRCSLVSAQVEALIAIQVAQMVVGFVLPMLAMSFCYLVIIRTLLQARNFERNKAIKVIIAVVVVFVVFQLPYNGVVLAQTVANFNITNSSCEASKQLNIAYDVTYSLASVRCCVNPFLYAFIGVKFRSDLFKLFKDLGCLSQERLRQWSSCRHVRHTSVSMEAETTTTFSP

human CCR7 [4] = biological target: T1, human CCR7; experiment: cell-based or functional assay; remark: listed apart in the source
cynomolgus monkey CCR7 [5] = biological target: T3, cynomolgus monkey CCR7 (cynomolgus monkey, UniProt P32248 25-378 (human entry)); experiment: FACS titration, cynomolgus CD4+ T cells
T3 construct: also called Cyno CCR7; NIH3T3.cyno CCR7
T3 sequence: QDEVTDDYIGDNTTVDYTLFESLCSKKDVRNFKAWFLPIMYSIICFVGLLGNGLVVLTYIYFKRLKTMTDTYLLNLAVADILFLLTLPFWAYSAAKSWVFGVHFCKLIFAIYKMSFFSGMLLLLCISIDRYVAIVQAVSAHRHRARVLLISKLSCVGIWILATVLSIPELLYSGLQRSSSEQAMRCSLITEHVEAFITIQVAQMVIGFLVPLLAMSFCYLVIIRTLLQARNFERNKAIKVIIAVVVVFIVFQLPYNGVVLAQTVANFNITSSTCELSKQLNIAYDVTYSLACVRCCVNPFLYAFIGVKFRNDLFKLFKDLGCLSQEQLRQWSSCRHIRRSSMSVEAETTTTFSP

mouse CCR7 = biological target: T4, mouse CCR7 (mouse, UniProt P47774 25-378); experiment: FACS titration, CD-1 mouse CD4+ T cells
T4 construct: also called NIH3T3.mouse CCR7
T4 sequence: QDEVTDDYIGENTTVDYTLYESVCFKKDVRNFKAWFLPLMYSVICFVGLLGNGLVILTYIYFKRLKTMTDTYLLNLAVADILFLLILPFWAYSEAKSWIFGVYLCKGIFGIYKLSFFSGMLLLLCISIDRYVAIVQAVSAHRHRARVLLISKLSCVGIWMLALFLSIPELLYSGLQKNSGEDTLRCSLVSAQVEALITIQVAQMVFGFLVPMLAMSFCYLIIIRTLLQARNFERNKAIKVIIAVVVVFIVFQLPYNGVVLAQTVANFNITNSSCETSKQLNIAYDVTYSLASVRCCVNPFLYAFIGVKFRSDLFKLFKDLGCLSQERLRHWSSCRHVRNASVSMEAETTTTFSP

human CCR7 [6] = biological target: T1, human CCR7; experiment: FACS titration, human CD4+ T cells from PBMC
human CCR7 [7] = biological target: T1, human CCR7; experiment: FACS titration, NIH3T3 cells expressing human CCR7
CCR9 = biological target: T5, CCR9 (UniProt P51686 1-369, limits assumed); experiment: FACS on PF382 cells (CCR7-/CCR9+/CCR6+)
T5 construct: whole, on cells; also called PF382 cells (CCR7-/CCR9+/CCR6+)
T5 sequence (looked up): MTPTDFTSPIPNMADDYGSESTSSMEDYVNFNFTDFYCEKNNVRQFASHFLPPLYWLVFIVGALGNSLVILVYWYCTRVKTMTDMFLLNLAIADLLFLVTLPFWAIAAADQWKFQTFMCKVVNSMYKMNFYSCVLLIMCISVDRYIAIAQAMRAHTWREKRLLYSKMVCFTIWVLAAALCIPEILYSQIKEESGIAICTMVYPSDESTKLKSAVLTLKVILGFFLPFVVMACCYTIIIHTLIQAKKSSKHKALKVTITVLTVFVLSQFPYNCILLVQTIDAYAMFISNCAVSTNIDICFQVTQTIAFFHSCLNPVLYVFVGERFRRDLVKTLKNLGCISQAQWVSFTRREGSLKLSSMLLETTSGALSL

CCR6 = biological target: T6, CCR6 (UniProt P51684 1-374, limits assumed); experiment: FACS on PF382 cells (CCR7-/CCR9+/CCR6+)
T6 construct: whole, on cells; also called PF382 cells (CCR7-/CCR9+/CCR6+)
T6 sequence (looked up): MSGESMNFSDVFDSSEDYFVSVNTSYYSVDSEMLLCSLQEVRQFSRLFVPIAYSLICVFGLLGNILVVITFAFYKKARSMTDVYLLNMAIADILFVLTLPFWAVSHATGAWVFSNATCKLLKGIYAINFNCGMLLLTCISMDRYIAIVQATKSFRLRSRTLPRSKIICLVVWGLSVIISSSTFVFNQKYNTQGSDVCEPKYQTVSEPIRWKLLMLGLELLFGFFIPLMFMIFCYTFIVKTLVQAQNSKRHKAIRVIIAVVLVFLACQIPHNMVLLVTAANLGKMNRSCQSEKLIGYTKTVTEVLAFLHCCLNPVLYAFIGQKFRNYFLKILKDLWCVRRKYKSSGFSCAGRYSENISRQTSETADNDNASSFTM

human CCR7 [8] = biological target: T1, human CCR7; experiment: ELISA on CCR7-expressing VLPs, pH 5.8 buffer
human CCR7 [9] = biological target: T1, human CCR7; experiment: FACS titration, human CD4+ T cells from PBMC; remark: listed apart in the source
CXCR4 = biological target: T7, CXCR4 (UniProt P61073 1-352, limits assumed); experiment: FACS on HEK293-CXCR4 cells
T7 construct: whole, on cells; also called HEK293-CXCR4
T7 sequence (P61073 whole entry): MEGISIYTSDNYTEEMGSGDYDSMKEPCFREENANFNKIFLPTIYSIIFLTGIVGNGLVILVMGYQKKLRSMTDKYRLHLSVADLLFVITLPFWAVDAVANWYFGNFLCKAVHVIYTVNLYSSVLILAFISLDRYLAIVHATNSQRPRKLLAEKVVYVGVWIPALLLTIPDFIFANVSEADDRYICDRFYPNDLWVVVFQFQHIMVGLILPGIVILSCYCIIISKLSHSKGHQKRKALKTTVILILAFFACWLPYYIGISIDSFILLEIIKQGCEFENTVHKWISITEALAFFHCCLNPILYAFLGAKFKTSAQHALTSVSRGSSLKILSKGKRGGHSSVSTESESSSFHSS

CCR8 = biological target: T8, CCR8 (UniProt P51685 1-355, limits assumed); experiment: FACS on CHO-CCR8 cells
T8 construct: whole, on cells; also called CHO-CCR8
T8 sequence (P51685 whole entry): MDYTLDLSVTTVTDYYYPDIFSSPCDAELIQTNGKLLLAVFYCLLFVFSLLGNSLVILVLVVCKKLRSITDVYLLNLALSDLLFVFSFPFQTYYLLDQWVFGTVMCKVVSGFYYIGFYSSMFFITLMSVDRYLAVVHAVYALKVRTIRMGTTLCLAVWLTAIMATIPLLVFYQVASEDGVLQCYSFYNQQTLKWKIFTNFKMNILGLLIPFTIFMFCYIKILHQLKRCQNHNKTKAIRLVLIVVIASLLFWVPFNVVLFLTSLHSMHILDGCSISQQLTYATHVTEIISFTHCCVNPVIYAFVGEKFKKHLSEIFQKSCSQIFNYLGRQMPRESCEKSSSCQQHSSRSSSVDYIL

human CCR7 [10] = biological target: T1, human CCR7; experiment: ELISA on CCR7-expressing VLPs, pH 7.4 buffer
cynomolgus monkey CCR7 [11] = biological target: T3, cynomolgus monkey CCR7; experiment: FACS titration, cynomolgus CD4+ T cells; remark: listed apart in the source
human CCR7 [12] = biological target: T1, human CCR7; experiment: FACS titration, human CD4+ T cells (receptor density <2,000)

Row | Binder | binding result (rat CCR7) | ADCC activity; IC50 (nM); reporter assay, JVM2 targets and Jurkat-V158 effectors (human CCR7 [4]) | EC50 (cynomolgus monkey CCR7 [5]) | binding result (mouse CCR7) | EC50 (human CCR7 [6]) | binding result (CCR9) | binding result (CCR6) | Kd (human CCR7 [8]) | binding result (CXCR4) | binding result (CCR8) | Kd (human CCR7 [10]) | EC50 (cynomolgus monkey CCR7 [11]) | other results
1 | B1 |  |  |  |  |  |  |  |  |  |  |  |  | ADC activity in cell viability assay; IC50 (nM); CML-T1 cells (CCR7 receptor levels ~29,000) (human CCR7 [1]): 3.78 nM; ADC activity in cell viability assay; IC50 (nM); DEL cells (CCR7 receptor levels ~100,000) (human CCR7 [1]): 0.242 nM; ADC activity in cell viability assay; IC50 (nM); KE97 cells (CCR7 receptor levels ~100,000) (human CCR7 [1]): 0.102 nM; ADC activity in cell viability assay; IC50 (nM); SR786 cells (CCR7 receptor levels ~28,000) (human CCR7 [1]): 2.74 nM; difference of geometric mean fluorescence intensity from the unconjugated antibody (human CCR7 [2]): ≤ 20%; ADC activity in cell viability assay; IC50 (nM); DEL cells (human CCR7 [3]): 0.117 nM; ADC activity in cell viability assay; IC50 (nM); KE97 cells (human CCR7 [3]): 0.0658 nM
2 | B2 | no binding | 0.131 nM | 6.6 nM | no binding | 4.6 to 9.7 nM |  |  |  |  |  |  |  | 
3 | B3 | no binding | 1.09 nM | 0.45 nM | no binding | 0.39 to 1.4 nM |  |  |  |  |  |  |  | EC50 (human CCR7 [7]): 3.6 nM
4 | B4 |  | 0.054 nM |  |  |  | no binding (tested: 5 ug/ml) | no binding (tested: 5 ug/ml) | 0.494 nM | no binding (tested: 5 ug/ml) | no binding (tested: 5 ug/ml) | 0.0571 nM | 7 nM | EC50 (human CCR7 [9]): 7.8 to 11 nM
5 | B5 |  |  |  |  |  | no binding (tested: 5 ug/ml) | no binding (tested: 5 ug/ml) | 0.166 nM | no binding (tested: 5 ug/ml) | no binding (tested: 5 ug/ml) | 0.0162 nM | 0.5 nM | 
6 | B6 |  |  |  |  |  |  |  |  |  |  |  |  | EC50 (human CCR7 [12]): ~7 nM
